A word on the Kd: it is the concentration at which binding is half-saturated. Broadly, the EC50 is the concentration needed to bring the measured effect to its halfway point. A low value points to greater potency.

The target in test [1] is S1(349-590)-hFc (MERS-CoV; human). The test can be described thus: BLI (Octet RED96), wild type RBD-hFc. (BLI is a label-free optical method that tracks binding on a fibre tip over time.)
Another test concerns the target hDPP4 Cells (human) (UniProt P27487). The test can be described thus: FACS. The settings on record: Fc fusion.

Sequence of hDPP4 Cells (human) (P27487 whole entry, the tested form may be a part): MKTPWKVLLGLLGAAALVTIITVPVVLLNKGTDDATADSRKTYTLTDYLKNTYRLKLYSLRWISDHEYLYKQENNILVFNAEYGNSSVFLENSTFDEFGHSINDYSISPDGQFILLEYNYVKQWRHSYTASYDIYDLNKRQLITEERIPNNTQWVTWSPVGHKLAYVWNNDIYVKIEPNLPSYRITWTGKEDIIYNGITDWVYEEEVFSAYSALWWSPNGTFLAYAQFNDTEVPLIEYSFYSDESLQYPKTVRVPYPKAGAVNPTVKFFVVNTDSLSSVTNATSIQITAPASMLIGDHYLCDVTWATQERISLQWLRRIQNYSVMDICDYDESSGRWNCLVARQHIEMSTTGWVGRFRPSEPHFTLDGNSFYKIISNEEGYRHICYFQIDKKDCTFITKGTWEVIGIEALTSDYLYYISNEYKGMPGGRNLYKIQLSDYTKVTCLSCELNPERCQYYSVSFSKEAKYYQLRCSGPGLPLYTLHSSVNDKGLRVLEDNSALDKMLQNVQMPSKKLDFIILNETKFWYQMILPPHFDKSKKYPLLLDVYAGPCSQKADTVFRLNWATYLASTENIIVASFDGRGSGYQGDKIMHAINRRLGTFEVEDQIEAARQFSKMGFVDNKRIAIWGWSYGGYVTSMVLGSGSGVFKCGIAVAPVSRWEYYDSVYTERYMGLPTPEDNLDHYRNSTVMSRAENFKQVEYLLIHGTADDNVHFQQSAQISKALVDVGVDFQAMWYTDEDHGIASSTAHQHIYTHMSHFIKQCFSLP

Take “Recombinant soluble human DPP4 (from UniProt P27487 29-766) (receptor)”: the Kd in test [1] stood at 21.4 nM.

The substance Wt. RBD gave an EC50 in the test with hDPP4 Cells (human) of 0.015 µg/mL.

Source of the values: patent US20210147513A1.
